Measurements: patent US20230079439A1 (University of California, published 2023)
Numbered stars: 1 amine (or outer) side, 2 acyl side, 3 side chain; on linkers, the order of the positions; unused ones are H or OH. Suc = O=C(CCC(=O)[*:2])[*:1]

Target: neurexins (NXs) located on the plasma membrane of INS-1E cells (rat)
Assay: cell-based or functional assay

EC50 of the increase of GSIS in INS-1E cells: 32 µM
B1: HSA-112 (HSA-28 dimer formed by bridging two HSA-28 monomers via amide bonds with active ester PEG2000) (peptide)
peptide: {PEG2000-Suc}-QQGEFLNYD-NH2
modifications: also: dimer of two HSA-28 monomers bridged via PEG2000
